Patent publication US20130316910A1 (UNIVERSITY OF TOKYO, published 2013)

B1: A-1A (peptide)
peptide: Ac-FPHATIAARADSYDSYVRLAATFL-NH2
notes: by the library design Ala stands where the special amino acid and Cys would be

biological target: T1, Bcl-2 protein having His tag on the C terminal side (UniProt P10415 1-211, limits assumed); assay: SPR, His-tagged Bcl-2 immobilised on Ni substrate, peptide in solution
T1 construct: Immobilised through its His tag on a Ni-loaded SPR substrate; not shown: C-terminal His tag
T1 sequence (P10415 1-211 limits assumed): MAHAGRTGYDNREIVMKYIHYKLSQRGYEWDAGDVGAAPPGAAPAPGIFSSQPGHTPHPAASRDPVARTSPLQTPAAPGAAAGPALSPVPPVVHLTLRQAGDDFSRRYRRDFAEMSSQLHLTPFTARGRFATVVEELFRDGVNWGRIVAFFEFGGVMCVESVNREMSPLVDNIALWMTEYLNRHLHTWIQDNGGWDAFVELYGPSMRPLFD
Experimental: Next, a crosslinked peptide having the amino acid sequence as shown in the above table was synthesized by using a Fmoc solid-phase method and its binding ability was evaluated by calculating a dissociation constant (KD) in accordance with an evaluation method using SPR (Surface Plasmon Resonance).
Described specifically, first, a solution containing NiCl₂ was applied on a substrate to which Ni could be bound and then Bcl-2 protein having His tag on the C terminal side thereof was applied to immobilize the protein on the substrate. Then, a solution containing a solid-phase synthesized peptide was added successively while appropriately changing the concentration. During addition, a change in refractive index depending on the weight on the substrate was read and bond strength was evaluated based on the binding rate and dissociation rate of the peptide calculated.

**Q.** How did the Kd turn out when B1 was run?
**A.** The Kd was 15 nM.

**Q.** Ac-FPHATIAARADSYDSYVRLVATFR-NH2 [A-2A] was tested. Which Kd did it give?
**A.** Its Kd is 3.6 nM.

**Q.** Ac-FFNRHNNAYYTAGYAALGRLYRLL-NH2 [A-4A] was tested. Which Kd did it give?
**A.** Its Kd is ~14 nM.

**Q.** How did the Kd turn out when Ac-FIIARFSALADSYDASRHIF-NH2 [A-5A] was run?
**A.** Its Kd is 0.58 nM.
